In publication PMC5774825:

Experiments:
[1] = biological target: Ab-WbjB (UDP-N-acetylglucosamine 4,6-dehydratase, WbjB) of Acinetobacter baumannii D1279779 (Acinetobacter baumannii strain D1279779); assay: SEC; some laboratory samples of Ab-WbjB, presumed by the authors to hold less NADP+; dimer form in solution (example in S1 Fig)
[2] = biological target: Ab-WbjB (UDP-N-acetylglucosamine 4,6-dehydratase, WbjB) of Acinetobacter baumannii D1279779 (Acinetobacter baumannii strain D1279779); assay: crystal structure; Se-Met Ab-WbjB, space group P212121, six chains in the asymmetric unit, NADP+ bound to each chain, 2.65 Å
[3] = biological target: Ab-WbjB (UDP-N-acetylglucosamine 4,6-dehydratase, WbjB) of Acinetobacter baumannii D1279779 (Acinetobacter baumannii strain D1279779); assay: SEC; Superdex 200 10/300 GL, Buffer A (50 mM HEPES pH 7.5, 200 mM NaCl, 5% v/v glycerol), 0.5 mL/min; hexamer

Substance: Ab-WbjB (UDP-N-acetylglucosamine 4,6-dehydratase, WbjB) of Acinetobacter baumannii D1279779 (enzyme)
- stoichiometry N [1]: 2
- stoichiometry N [2]: 6
- stoichiometry N [3]: 6
